According to the RNAGym collection of RNA variant scans (doi:10.1073/pnas.2313332121):

B1: TPR t1 (parent)
chain: GACCAAUCUGCCCUCAGAGCUCGAGAACAUCUUCGGAUGCAGAGGAGGCAGGCUUCGGUGGCGCGAUAGCGCCAACGUCCUCAACCUCCAAUGCAUCCCACCACAUGAUGAUGCCUGAAGAGCCUUGGUUUUUUG

Variants of: B1
Assay: polymerase ribozyme fitness, log enrichment relative to wild type (log ratio); higher = more active; in vitro selection for triplet polymerase activity
Outline: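 For each subunit of a heterodimeric triplet polymerase ribozyme, a mutant library was built by PCR and transcribed, then taken through a single in vitro selection round in triplicate. Selection involved annealing to a biotinylated primer, the partner subunit and triplets, incubation frozen at −7 °C, gel excision of extended constructs, capture on streptavidin beads and RT-PCR. Genotypes were retained after Illumina sequencing of inputs and outputs only with ≥10 input reads and ≥1 read in each output. Fitness is defined as the logarithm of a genotype's enrichment relative to wild-type enrichment, using inverse-variance-weighted averages across replicates, with the logarithm taken to base 2.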

**Q.** With A46G G47U A119G as the variant, how does the “polymerase ribozyme fitness (log ratio)” value read?
**A.** -0.516

**Q.** With G47A G51U C72U U78C as the variant, how does the “polymerase ribozyme fitness (log ratio)” value read?
**A.** -5

**Q.** With G48A C72A C115A as the variant, how does the “polymerase ribozyme fitness (log ratio)” value read?
**A.** -0.421

**Q.** With G47U A68G C104U as the variant, how does the “polymerase ribozyme fitness (log ratio)” value read?
**A.** -4.55

**Q.** Which “polymerase ribozyme fitness (log ratio)” value does the source give for G48C C49G U54C A95C G117A here?
**A.** -2.24

**Q.** For G47U U116C, which “polymerase ribozyme fitness (log ratio)” value is on record?
**A.** -1.74

**Q.** Which “polymerase ribozyme fitness (log ratio)” value does the source give for G48A C88G here?
**A.** -0.075

**Q.** With G47A G61A A84C as the variant, how does the “polymerase ribozyme fitness (log ratio)” value read?
**A.** -1.29

**Q.** With G47U C62G as the variant, how does the “polymerase ribozyme fitness (log ratio)” value read?
**A.** -3.76

**Q.** For G48A C56U C70A G93A, which “polymerase ribozyme fitness (log ratio)” value is on record?
**A.** -5.28

**Q.** Which “polymerase ribozyme fitness (log ratio)” value does the source give for G48A C82G here?
**A.** -0.457

**Q.** Which “polymerase ribozyme fitness (log ratio)” value does the source give for G48A C82A here?
**A.** -1.42

**Q.** With A46U G110A as the variant, how does the “polymerase ribozyme fitness (log ratio)” value read?
**A.** -2.4

**Q.** For A46U A121C, which “polymerase ribozyme fitness (log ratio)” value is on record?
**A.** 1.4

**Q.** For G45U G77U C79U C114G, which “polymerase ribozyme fitness (log ratio)” value is on record?
**A.** -4.37

**Q.** Which “polymerase ribozyme fitness (log ratio)” value does the source give for G47C C115A here?
**A.** -2.22

**Q.** Which “polymerase ribozyme fitness (log ratio)” value does the source give for G45U G71A G93A here?
**A.** -2.09

**Q.** Which “polymerase ribozyme fitness (log ratio)” value does the source give for G47U G71A here?
**A.** -1.21

**Q.** Which “polymerase ribozyme fitness (log ratio)” value does the source give for G47C C70U G93A C124A G127U G135U here?
**A.** -3.66

**Q.** For G45U G52U, which “polymerase ribozyme fitness (log ratio)” value is on record?
**A.** -2.65

**Q.** With A46U C82A as the variant, how does the “polymerase ribozyme fitness (log ratio)” value read?
**A.** -1.42

**Q.** Which “polymerase ribozyme fitness (log ratio)” value does the source give for A46G C123U here?
**A.** 0.893

**Q.** Which “polymerase ribozyme fitness (log ratio)” value does the source give for G47U U96C A118G here?
**A.** -1.69

**Q.** For G47C G52C G120U C123A, which “polymerase ribozyme fitness (log ratio)” value is on record?
**A.** -1.92

**Q.** Which “polymerase ribozyme fitness (log ratio)” value does the source give for G48A C94G here?
**A.** -1.71

**Q.** With G47C A91C G113C as the variant, how does the “polymerase ribozyme fitness (log ratio)” value read?
**A.** -2.97

**Q.** Which “polymerase ribozyme fitness (log ratio)” value does the source give for A46U G63C C76A C85A C115G here?
**A.** -5.34

**Q.** For G48A G120C, which “polymerase ribozyme fitness (log ratio)” value is on record?
**A.** 0.921

**Q.** With G45U G61U G63C A91C A95G G110C as the variant, how does the “polymerase ribozyme fitness (log ratio)” value read?
**A.** -4.25

**Q.** For A46U G58A A83G A84C, which “polymerase ribozyme fitness (log ratio)” value is on record?
**A.** -2.18

**Q.** Which “polymerase ribozyme fitness (log ratio)” value does the source give for A46U U130G here?
**A.** -1.6

**Q.** Which “polymerase ribozyme fitness (log ratio)” value does the source give for A46U C86A A118G here?
**A.** -0.968

**Q.** With A46C G93U U106A as the variant, how does the “polymerase ribozyme fitness (log ratio)” value read?
**A.** -1.93

**Q.** Which “polymerase ribozyme fitness (log ratio)” value does the source give for G48C C62A G63U A121G here?
**A.** -4.74

**Q.** For G48A G135U, which “polymerase ribozyme fitness (log ratio)” value is on record?
**A.** -1.08

**Q.** For A46G C53A C56U, which “polymerase ribozyme fitness (log ratio)” value is on record?
**A.** -0.0153

**Q.** For A46C C49U A111U U133G, which “polymerase ribozyme fitness (log ratio)” value is on record?
**A.** -5.19

**Q.** Which “polymerase ribozyme fitness (log ratio)” value does the source give for G47A G113U here?
**A.** -2.8

**Q.** Which “polymerase ribozyme fitness (log ratio)” value does the source give for G47A G113C here?
**A.** -3.08

**Q.** With A46C G48U C70A G113A as the variant, how does the “polymerase ribozyme fitness (log ratio)” value read?
**A.** -3.12

**Q.** For G47U G60U, which “polymerase ribozyme fitness (log ratio)” value is on record?
**A.** -1.15

**Q.** With A46U C72U U96A G120A as the variant, how does the “polymerase ribozyme fitness (log ratio)” value read?
**A.** -1.15

**Q.** With G47U C89U as the variant, how does the “polymerase ribozyme fitness (log ratio)” value read?
**A.** -3.28

**Q.** For G48A C114A, which “polymerase ribozyme fitness (log ratio)” value is on record?
**A.** -2.8

**Q.** For A46U G117C, which “polymerase ribozyme fitness (log ratio)” value is on record?
**A.** -1.89

**Q.** For G47U C53A U106C, which “polymerase ribozyme fitness (log ratio)” value is on record?
**A.** -0.879

**Q.** With G45U U92A as the variant, how does the “polymerase ribozyme fitness (log ratio)” value read?
**A.** -3.79

**Q.** With A46U C70U C79G U130C as the variant, how does the “polymerase ribozyme fitness (log ratio)” value read?
**A.** -4.73

**Q.** For G48A C124U, which “polymerase ribozyme fitness (log ratio)” value is on record?
**A.** 1.15

**Q.** With G48A C85U A105U as the variant, how does the “polymerase ribozyme fitness (log ratio)” value read?
**A.** -2.08

**Q.** Which “polymerase ribozyme fitness (log ratio)” value does the source give for G48A C86A here?
**A.** -0.909

**Q.** With G48A C86U as the variant, how does the “polymerase ribozyme fitness (log ratio)” value read?
**A.** -0.5

**Q.** For G47U G60A G117A, which “polymerase ribozyme fitness (log ratio)” value is on record?
**A.** -3.41

**Q.** Which “polymerase ribozyme fitness (log ratio)” value does the source give for G48A C85G U106C here?
**A.** -1.25

**Q.** For G47A C56U, which “polymerase ribozyme fitness (log ratio)” value is on record?
**A.** 0.000278

**Q.** Which “polymerase ribozyme fitness (log ratio)” value does the source give for G47A C56G here?
**A.** -1.29

**Q.** With A46U C79U C82U G110U G135A as the variant, how does the “polymerase ribozyme fitness (log ratio)” value read?
**A.** -3.2

**Q.** With G48A C85G C89A U96C as the variant, how does the “polymerase ribozyme fitness (log ratio)” value read?
**A.** -2.26

**Q.** For G45U G93U G120A, which “polymerase ribozyme fitness (log ratio)” value is on record?
**A.** -0.614

**Q.** With G47U C70U C88U as the variant, how does the “polymerase ribozyme fitness (log ratio)” value read?
**A.** -3.39

**Q.** For G47U A95U, which “polymerase ribozyme fitness (log ratio)” value is on record?
**A.** -1.91

**Q.** Which “polymerase ribozyme fitness (log ratio)” value does the source give for G48A C72A U116C here?
**A.** -1.09

**Q.** Which “polymerase ribozyme fitness (log ratio)” value does the source give for G47U G61A C123A here?
**A.** -0.25

**Q.** With G48C A75G as the variant, how does the “polymerase ribozyme fitness (log ratio)” value read?
**A.** -0.575

**Q.** For A46C C76A, which “polymerase ribozyme fitness (log ratio)” value is on record?
**A.** -0.908

**Q.** Which “polymerase ribozyme fitness (log ratio)” value does the source give for A46U G120U here?
**A.** -0.451

**Q.** Which “polymerase ribozyme fitness (log ratio)” value does the source give for G47U G61A C85A here?
**A.** -1.18

**Q.** Which “polymerase ribozyme fitness (log ratio)” value does the source give for G47A G48C G52U C79U here?
**A.** -3.46

**Q.** With G47A G60U U133G as the variant, how does the “polymerase ribozyme fitness (log ratio)” value read?
**A.** -0.844

**Q.** Which “polymerase ribozyme fitness (log ratio)” value does the source give for A46C C72U A75U C123U here?
**A.** 0.328

**Q.** For A46C U96G C104U U131C, which “polymerase ribozyme fitness (log ratio)” value is on record?
**A.** -1.75

**Q.** With A46C C56A G69U as the variant, how does the “polymerase ribozyme fitness (log ratio)” value read?
**A.** -1.31

**Q.** Which “polymerase ribozyme fitness (log ratio)” value does the source give for A46U A111G here?
**A.** -1.48

**Q.** For G47A C72U A121U, which “polymerase ribozyme fitness (log ratio)” value is on record?
**A.** 1.16

**Q.** Which “polymerase ribozyme fitness (log ratio)” value does the source give for G47U C104A U129A here?
**A.** -5.96

**Q.** With A46C G69U as the variant, how does the “polymerase ribozyme fitness (log ratio)” value read?
**A.** -0.0247

**Q.** For A46U G77C C115U G122A U130C, which “polymerase ribozyme fitness (log ratio)” value is on record?
**A.** -4.76

**Q.** Which “polymerase ribozyme fitness (log ratio)” value does the source give for G48A C85G here?
**A.** -2.75

**Q.** Which “polymerase ribozyme fitness (log ratio)” value does the source give for G45U G61A C62U C79A here?
**A.** -2.55

**Q.** With G47C C49G U96A as the variant, how does the “polymerase ribozyme fitness (log ratio)” value read?
**A.** -2.52

**Q.** With G47A G69C C101U G122A as the variant, how does the “polymerase ribozyme fitness (log ratio)” value read?
**A.** -3.07

**Q.** Which “polymerase ribozyme fitness (log ratio)” value does the source give for A46U C73U C123G G127A here?
**A.** -1.5

**Q.** Which “polymerase ribozyme fitness (log ratio)” value does the source give for G47U A105C U106A here?
**A.** -1.48
